Target: human PD-L1 (hPD-L1), full length, expressed on cells (human) (UniProt Q9NZQ7)
Test: flow cytometry, AlexaFluor647-labelled antibody (5 ug/mL per p-1191) on monocyte-derived dendritic cells

human PD-L1 (hPD-L1), full length, expressed on cells (human), sequence (Q9NZQ7 19-290 limits assumed): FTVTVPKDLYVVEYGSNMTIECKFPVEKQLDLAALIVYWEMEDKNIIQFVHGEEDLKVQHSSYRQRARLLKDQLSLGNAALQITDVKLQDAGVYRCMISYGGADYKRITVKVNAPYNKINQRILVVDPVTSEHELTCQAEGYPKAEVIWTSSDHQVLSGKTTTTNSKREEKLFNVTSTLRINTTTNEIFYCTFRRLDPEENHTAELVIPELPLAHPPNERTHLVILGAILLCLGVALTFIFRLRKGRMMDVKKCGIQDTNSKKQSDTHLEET

Isotype hu IgG1 (D107) (antibody)
Geometric Mean : R1-A: 379
